According to the supplement of paper PMC11865577:

tested on: G-clamp-N3 (biotin conjugate); assay: pull-down binding Z-score (relative to library population); higher = stronger binding; details: RNA library: Library-1 (pre-miRNA loops + repeats)
In short: (§1)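 Binding is given as a Z-score against the library mean and standard deviation, calculated after removing the beads-only signal and averaging barcoded replicate probes without their highest and lowest values. Cy5- or Cy3-end-labelled RNA library (1 μg) was heat-folded in phosphate/NaCl/KCl buffer and incubated 60 min at 25 °C with streptavidin beads bearing 100 pmol of biotin-conjugated small molecule. After three washes, RNA eluted in hot SDS was hybridised to a DNA barcode microarray for 20 h at 55.5 °C.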

In order of falling “pull-down binding Z-score” value:
1. CUCAGCAUGUUGAGCCCUGUCUCUGGGGAGCUGAC [hsa-mir-6505]  1.48
2. CUCAGAGGGCUGAAGUGGUUGUGGGGAGGGGCUUCUGGG [hsa-mir-4296]  1.39
3. CUCACUGCAGAAUUAUUUUGAG [hsa-mir-4524a]  0.934
4. CUCAAUGUAGUCUUGUAAGGAACAGGUUGAAG [hsa-mir-595]  0.711
5. CUCAGGAAUUGGAUAAGCUUUUCUGAG [hsa-mir-5194]  0.541
6. CUCAGCCUGGAAAAAGCUGAG [hsa-mir-4765]  0.49
7. CUCAUGAUAUGUUUGCCCCAUCAGCGUGUCACGAG [hsa-mir-3616]  0.251
8. CUAUUCAGAAAUGUGGCCUGUGAUUAG [hsa-mir-1295a]  0.22
9. CUCAGGACAGCGGGUGUCAGCUUGCCUGAC [hsa-mir-6859-1_6859-3_6859-2_6859-4]  -0.377
10. CUCACGUGUGCCUGCCUGUGAG [hsa-mir-339]  -0.747
11. CUCAACUCUUGGUCCUCUGAG [hsa-mir-3165]  -0.955
12. CUCAAGUCCUCUAUUUCUUUGAA [hsa-mir-7978]  -1.16
13. CUCACCAUAGUGGUGGA [hsa-mir-1288]  -1.2
14. CUCACAUGGAGUAAAAUAUGAU [hsa-mir-3134]  -1.71

tested on: TO-N3-2 (biotin conjugate); assay: as above; details: RNA library: Library-2
In short: as §1

In order of rising “pull-down binding Z-score” value:
1. CGUAUGUGUAUAUAAAUGUAUACG [hsa-mir-1277]  -1.36
2. CUCACUGCAGAAUUAUUUUGAG [hsa-mir-4524a]  -0.99
3. CGGGCCCCUCCCCUCAAUGGGCCCG [hsa-mir-5685]  -0.886
4. CGCUAGUAGUGGCG [hsa-mir-3960]  -0.869
5. CGUGCAAGUUUAAGUUUUUGCACG [hsa-mir-4445]  -0.688
6. CUCAGCCUGGAAAAAGCUGAG [hsa-mir-4765]  -0.646
7. CUAAAUGGUACCCACUUUAUUUAG [hsa-mir-5687]  -0.639
8. CGUGCACGUACCUGUCACAUGUGUACG [hsa-mir-3939]  -0.599
9. CUCACCAUAGUGGUGGA [hsa-mir-1288]  -0.588
10. CUAAUCUCUUAGCACUGAAGAUUAG [hsa-mir-4671]  -0.473
11. CUCAGGAAUUGGAUAAGCUUUUCUGAG [hsa-mir-5194]  -0.323
12. CGGUGUGCAAAUGUGUGUGUGCGGUGUUAUGCCG [hsa-mir-4442]  -0.316
13. CGGGAACCUGCCUCCCG [hsa-mir-596]  -0.232
14. CGUUUAGUAGAUGAUUGUGCAUUGUUUCAAAAUG [hsa-mir-224]  -0.183
15. CGGUCCCAUAUUGAACUCG [hsa-mir-4444-1_4444-2]  -0.109
16. CGUUCCAAUGCGACACCUCUAGAGUGUCAUCCCCUAGAAUGUCACCUUGGAAAG [hsa-mir-4432]  -0.0713
17. CGUACGCUUUAUCUGUGACGUAUG [hsa-mir-411]  -0.0511
18. CUACUCAAGGCUAG [hsa-mir-4266]  -0.0352
19. CUAUCCUUCCCUUGGAAAAUGAUCUGAG [hsa-mir-4770]  -5.12e-05
20. CGCUGAUGUGCAUUCAACUCAUUCUCAGCA [hsa-mir-1468]  0.000597
21. CUCAAGUCCUCUAUUUCUUUGAA [hsa-mir-7978]  0.0517
22. CUAGUAUGUCUCAUCCCCUACUAG [hsa-mir-151a]  0.072
23. CGUUCGCUUUAUUUAUGGCGCACA [hsa-mir-323a]  0.118
24. CUAUUCAGAAAUGUGGCCUGUGAUUAG [hsa-mir-1295a]  0.169
25. CUCAUGAUAUGUUUGCCCCAUCAGCGUGUCACGAG [hsa-mir-3616]  0.199
26. CUCACAUGGAGUAAAAUAUGAU [hsa-mir-3134]  0.206
27. CUAACAGGCCCCUGUCACCAUUAG [hsa-mir-5579]  0.236
28. CGCUGCUGGCUGCCUUCCAGCG [hsa-mir-4533]  0.26
29. CGGAUCUCGAGGGUGCUUAUUGUUCGGUCCG [hsa-mir-615]  0.351
30. CGUAGGCGUUAUGAUUUCUGACCUAUG [hsa-mir-379]  0.473
31. CGGAGCAGUCACGUUGACGGAAUCCUCCG [hsa-mir-3183]  0.498
32. CUCAACUCUUGGUCCUCUGAG [hsa-mir-3165]  0.545
33. CUAAGCUAUGGACUGCUAUGGACUGCUAG [hsa-mir-4473]  0.578
34. CGGAAUUCUCCAGAGCCUCUG [hsa-mir-6889]  0.584
35. CGGUCGGAUAAUCACAUGACGAG [hsa-mir-2114]  0.592
36. CUACUAGUUUGUAGUAGUUCGUAGCAG [hsa-mir-3919]  0.637
37. CGGUACCCACUGCUGAGGGUGGGGACCA [hsa-mir-3691]  0.687
38. CUACAUCGUGGAAGCCAGCACCAUGCAG [hsa-mir-455]  0.773
39. CGGUGGUCCCUCCCG [hsa-mir-3687-1_3687-2]  0.832
40. CUCAGCAUGUUGAGCCCUGUCUCUGGGGAGCUGAC [hsa-mir-6505]  0.878
41. CGCUGCCUGGAAUUAACCCCGCUGUG [hsa-mir-636]  0.891
42. CUCAAUGUAGUCUUGUAAGGAACAGGUUGAAG [hsa-mir-595]  0.908
43. CGUGCGCCAGUGGAG [hsa-mir-6089-2_6089-1]  0.982
44. CUAUGGCCCCCCUCCUCUCUGAAAGCAAGGCCACUUG [hsa-mir-8081]  0.982
45. CGGACGUUGCUCUCUACCCCG [hsa-mir-1247]  1.03
46. CGGGCUGAUUGCGCUAACAGUGGCCCC [hsa-mir-4783]  1.12
47. CGGGGCGGACGCAGAGCCGCGUUUAGUCUAUCG [hsa-mir-639]  1.12
48. CGUGCUCAGCUUGGCACCCAAGUUCUGC [hsa-mir-7704]  1.39
49. CUCAGGACAGCGGGUGUCAGCUUGCCUGAC [hsa-mir-6859-1_6859-3_6859-2_6859-4]  1.4
50. CGGACACCCGGCCUCCACUUUCUGUGGCAGGUACCUCCUCCA [hsa-mir-4505]  1.47
51. CGUUGAGUGGGCACCCGAGAAGCCAUCG [hsa-mir-425]  1.51
52. CUCACGUGUGCCUGCCUGUGAG [hsa-mir-339]  1.55
53. CGGAGCCUCGCAGGGUCGGGCUCGGGCUCCCUAACCGUCUCCGCUUCUUC [hsa-mir-6084]  1.77
54. CGGGGGGGGCCCGGGGACGGCUUGGGCCUGCCUAGUCGG [hsa-mir-1234]  2.4
55. CUCAGAGGGCUGAAGUGGUUGUGGGGAGGGGCUUCUGGG [hsa-mir-4296]  4.01
56. CGGCGGCGGCGGCGGCGGCGGCGGCGGCGGCGGCGGCGGCGGCGGCGG [G4_r(CGG)16]  5.03
